Source: patent US20200055896A1, “SUBSTRATES RECOGNIZED BY FIBROBLAST ACTIVATION PROTEIN (FAP) AND METHODS OF USING THE SAME” (GENENTECH, INC., priority 2017, published 2020)

Key:
Format in all cases: biochemical
[1] = tested on: human or mouse recombinant FAP; test: Michaelis-Menten kinetics of GP and aP cleavage by recombinant FAP; conditions: corrected for active enzyme concentration
Description: Michaelis-Menten kinetic measurements were carried out using 5 nM human or mouse recombinant FAP, with a series of peptide substrate titrations. Initial rate of substrate hydrolysis was determined using the Magellan software on a Tecan M1000 Pro plate reader and kinetic parameters were modeled using nonlinear regression analysis with GraphPad Prism software. Standard error was calculated from three experimental replicates.
As described by Copeland ((2000) Enzymes: a practical introduction to structure, mechanism, and data analysis, 2nd ed., J. Wiley, New York) the active enzyme concentration was determined from the x-intercept.

[2] = biological target: T1, FAP (Homo sapiens, UniProt Q12884); test: aP cleavage in anti-FAP or control IgG-immunodepleted human serum; conditions: after FAP immunodepletion; serum diluted 2.5-fold
T1 construct: the extracellular domain encoding the active enzyme can be shed from the cell surface; tissue Discovery Life Sciences, Inc. (part of the samples); host or cells: human serum (healthy donors, cirrhosis patients)
T1 sequence (Q12884 24-760 limits assumed): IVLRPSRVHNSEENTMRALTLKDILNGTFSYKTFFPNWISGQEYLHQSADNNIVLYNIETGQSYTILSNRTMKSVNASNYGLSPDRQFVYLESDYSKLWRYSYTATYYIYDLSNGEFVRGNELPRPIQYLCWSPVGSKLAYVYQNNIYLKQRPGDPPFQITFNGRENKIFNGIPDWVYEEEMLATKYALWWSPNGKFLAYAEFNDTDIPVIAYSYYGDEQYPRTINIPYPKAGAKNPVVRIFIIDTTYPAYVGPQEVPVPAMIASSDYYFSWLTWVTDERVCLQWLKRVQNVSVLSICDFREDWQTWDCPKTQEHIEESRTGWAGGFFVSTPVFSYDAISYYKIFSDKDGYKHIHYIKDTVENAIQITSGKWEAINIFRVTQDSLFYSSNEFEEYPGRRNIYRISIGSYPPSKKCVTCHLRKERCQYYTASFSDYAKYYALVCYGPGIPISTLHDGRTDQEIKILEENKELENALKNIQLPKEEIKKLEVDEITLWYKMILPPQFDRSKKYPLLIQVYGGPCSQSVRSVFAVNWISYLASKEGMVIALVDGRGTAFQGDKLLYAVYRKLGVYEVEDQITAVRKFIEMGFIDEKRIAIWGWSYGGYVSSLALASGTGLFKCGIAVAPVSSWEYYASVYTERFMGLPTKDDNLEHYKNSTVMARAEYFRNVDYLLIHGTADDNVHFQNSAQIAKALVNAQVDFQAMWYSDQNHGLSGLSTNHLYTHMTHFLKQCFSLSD
Description: (§1) Mouse plasma samples were prepared in K3-EDTA MiniCollect tubes (Greiner Bio-One, 450475) and frozen immediately at −80° C. prior to analysis. Human serum samples were obtained from healthy donors or purchased from Discovery Life Sciences, Inc. (Los Osos, Calif.).
(§2) Peptides of the region flanking the C-terminal human FGF21 cleavage site (VGPSQG) or a variant with D-alanine at P2 (VaPSQG) were synthesized (Anaspec, Inc.), containing an amine-terminal donor (HyLite Fluor 488 or Cy5.5 for aP NIRF) and a dark quencher-acceptor (QXL 520 or QSY21 for aP NIRF) conjugated to a supplementary C-terminal lysine. ANPFAP (Bioconjugate Chem 23:1704-11) and aP NIRF were synthesized by CPC Scientific (Sunnyvale, Calif.). Assays were conducted at 37° C. in 50 mM HEPES (pH 7.2), 150 mM NaCl, 1 mM EDTA, 0.1 mg/ml BSA. The excitation/emission wavelengths of cleaved peptide are 490/520 nm or 675/695 nm for ANPFAP and aP NIRF. Fluorescence was monitored on a Tecan M1000 Pro plate reader in kinetic mode. Except where indicated otherwise, measurements of serum or plasma FAP activity were performed with the peptide substrate concentration at 6 μM and a 10-fold dilution of serum or plasma in assay buffer.

[3] = tested on: human S9 and S28 peptidases; test: aP cleavage by a panel of recombinant human prolyl peptidases; conditions: each recombinant peptidase at 2.5 μg/ml
Text: Human prolyl oligopeptidase (PREP, 4308-SE), DPPIV (1180-SE), DPP9 (5419-SE), and DPPII/DPP7 (3438-SE) proteins were purchased from R&D Systems. Human DPP8 (BML-SE527) protein was purchased from Enzo Life Sciences. N-terminal octa-His-tagged human and mouse FAP proteins containing the extracellular domain (residues L26-D760 and L26-D761, respectively) were purified from the conditioned media of transiently-transfected CHO cells, by immobilized metal affinity chromatography (IMAC), followed by size exclusion chromatography (SEC).
as §2, with “Except where indicated otherwise, measurements of serum or plasma FAP activity were performed with the peptide substrate concentration at 6 μM and a 10-fold dilution of serum or plasma in assay buffer.” left out

[4] = biological target: T2, serum FAP (Homo sapiens, UniProt Q12884); test: aP probe fluorescence assay of FAP activity in human serum versus FAP ELISA
T2 construct: the extracellular domain encoding the active enzyme can be shed from the cell surface; tissue Discovery Life Sciences, Inc. (part of the samples); host or cells: human serum (healthy donors, cirrhosis patients)
T2 sequence (Q12884 24-760 limits assumed): T1 sequence (Q12884 24-760 limits assumed)
Description: as §1
Serum FAP concentration was measured using the human FAP DuoSet ELISA kit (R&D Systems, DY3715), according to the manufacturer's protocol.
as §2

## aP probe: FGF21-based peptide VaPSQG (D-alanine at P2) with HyLite Fluor 488 donor and QXL 520 quencher
[1]
  Km relative to parental GP peptide: essentially unchanged
  decrease in kcat relative to GP peptide: seven to eight-fold decrease
[2]
  cleavage signal in human serum: signal is lost
[3]
  cleavage by human S9 and S28 peptidases: did not exhibit an ability to cleave
[4]
  lowest FAP level detected with the activity assay: 63 ng/mL
